Changes are numbered by the printed parent chain.
T1: 6xHis-SUMO-tagged MYO18A motor domain (aa 408-1,242) (UniProt Q92614 408-1242)
T1 sequence (looked up): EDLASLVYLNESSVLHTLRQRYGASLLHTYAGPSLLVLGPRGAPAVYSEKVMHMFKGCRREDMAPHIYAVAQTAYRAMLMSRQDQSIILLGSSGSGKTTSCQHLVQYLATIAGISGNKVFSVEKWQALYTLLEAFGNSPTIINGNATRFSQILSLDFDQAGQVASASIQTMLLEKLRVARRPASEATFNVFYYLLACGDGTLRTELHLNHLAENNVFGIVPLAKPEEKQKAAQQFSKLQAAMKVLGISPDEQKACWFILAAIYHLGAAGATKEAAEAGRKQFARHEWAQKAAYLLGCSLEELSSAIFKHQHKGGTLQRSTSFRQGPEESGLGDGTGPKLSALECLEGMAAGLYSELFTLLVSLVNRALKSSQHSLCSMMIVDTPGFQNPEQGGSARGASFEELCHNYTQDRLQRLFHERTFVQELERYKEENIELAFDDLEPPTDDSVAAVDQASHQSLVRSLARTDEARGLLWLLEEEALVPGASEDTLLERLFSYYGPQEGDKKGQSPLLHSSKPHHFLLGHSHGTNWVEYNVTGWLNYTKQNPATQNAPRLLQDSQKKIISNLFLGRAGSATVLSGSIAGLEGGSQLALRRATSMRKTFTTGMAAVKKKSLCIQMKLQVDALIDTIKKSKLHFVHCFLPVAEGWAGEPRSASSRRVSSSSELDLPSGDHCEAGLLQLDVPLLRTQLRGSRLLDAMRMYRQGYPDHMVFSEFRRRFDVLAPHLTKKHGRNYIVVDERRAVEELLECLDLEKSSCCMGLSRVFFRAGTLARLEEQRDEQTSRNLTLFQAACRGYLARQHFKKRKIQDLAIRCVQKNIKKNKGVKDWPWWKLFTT

B1: GOLPH3 DQ-DVQ phosphomimetic mutant, purified, bacterially expressed (natural protein, UniProt Q9H4A6 1-298, looked up)
chain: MTSLTQRSSGLVQRRTEASRNAADKERAAGGGAGSSEDDAQSRRDEQDDDDKGDSKETRLTLMEEVLLLGLKDREGYTSFWNDCISSGLRGCMLIELALRGRLQLEACGMRRKSLLTRKVICKSDAPTGDVLLDEALKHVKEDQPPEDVQNWIELLSGETWNPLKLHYQLRNVRERLAKNLVEKGVLTTEKQNFLLFDMTTHPLTNNNIKQRLIKKVQEAVLDKWVNDPHRMDRRLLALIYLAHASDVLENAFAPLLDEQYDLATKRVRQLLDLDPEVECLKANTNEVLWAVVAAFTK
B2: GOLPH3 EQ-EVQ phosphomimetic mutant, purified, bacterially expressed (natural protein, UniProt Q9H4A6 1-298, looked up)
chain: B1 chain with D143E, D148E

Target: T1, 6xHis-SUMO-tagged MYO18A motor domain …
Experiment: pull-down

Binder	fold of interaction versus WT [fold]
B1	2.2
B2	1.9

Reference: article PMC4018323 (Cell, 2014)
